Binding result and Kd data for four molecules are collected here from patent US20240299505A1 (INDUSTRY UNIVERSITY COOPERATION FOUNDATION HANYANG …, published 2024).

Sequences and labels used below:
B3: endogenous NAMPT / extracellular NAMPT (eNAMPT) of mouse macrophages (BMDMs) and mouse colon (enzyme, UniProt Q99KQ4 1-491, looked up)
chain: MNAAAEAEFNILLATDSYKVTHYKQYPPNTSKVYSYFECREKKTENSKVRKVKYEETVFYGLQYILNKYLKGKVVTKEKIQEAKEVYREHFQDDVFNERGWNYILEKYDGHLPIEVKAVPEGSVIPRGNVLFTVENTDPECYWLTNWIETILVQSWYPITVATNSREQKKILAKYLLETSGNLDGLEYKLHDFGYRGVSSQETAGIGASAHLVNFKGTDTVAGIALIKKYYGTKDPVPGYSVPAAEHSTITAWGKDHEKDAFEHIVTQFSSVPVSVVSDSYDIYNACEKIWGEDLRHLIVSRSTEAPLIIRPDSGNPLDTVLKVLDILGKKFPVTENSKGYKLLPPYLRVIQGDGVDINTLQEIVEGMKQKKWSIENVSFGSGGALLQKLTRDLLNCSFKCSYVVTNGLGVNVFKDPVADPNKRSKKGRLSLHRTPAGNFVTLEEGKGDLEEYGHDLLHTVFKNGKVTKSYSFDEVRKNAQLNIEQDVAPH
notes: Endogenous protein of mouse cells or tissue, immunoprecipitated with anti-NAMPT; also called iNAMPT
B4: recombinant NAMPT protein (rNAMPT) (enzyme)
chain: MNPAAEAEFNILLATDSYKVTHYKQYPPNTSKVYSYFECREKKTENSKLRKVKYEETVFYGLQYILNKYLKGKVVTKEKIQEAKDVYKEHFQDDVFNEKGWNYILEKYDGHLPIEIKAVPEGFVIPRGNVLFTVENTDPECYWLTNWIETILVQSWYPITVATNSREQKKILAKYLLETSGNLDGLEYKLHDFGYRGVSSQETAGIGASAHLVNFKGTDTVAGLALIKKYYGTKDPVPGYSVPAAEHSTITAWGKDHEKDAFEHIVTQFSSVPVSVVSDSYDIYNACEKIWGEDLRHLIVSRSTQAPLIIRPDSGNPLDTVLKVLEILGKKFPVTENSKGYKLLPPYLRVIQGDGVDINTLQEIVEGMKQKMWSIENIAFGSGGGLLQKLTRDLLNCSFKCSYVVTNGLGINVFKDPVADPNKRSKKGRLSLHRTPAGNFVTLEEGKGDLEEYGQDLLHTVFKNGKVTKSYSFDEIRKNAQLNIELEAAHH
notes: Pulled down with anti-His, so it carries a His tag; also called eNAMPT (rNAMPT); unlabeled NAMPT

Test [1] concerns the target B4. Kind of test: co-IP (anti-His) from BMDMs incubated with rNAMPT, anti-ASC blot.
In test [2] the target is B3. Kind of test: co-IP (anti-NAMPT) from LPS/ATP-treated BMDMs, anti-ASC blot.
Test [3] addresses B4. Briefly: fluorescence binding: titration of fluorescently labeled CYBB with unlabeled rNAMPT, curve fit.
Method: Specifically, (A) normal human cases along with UC patients were used for IB with αNAMPT and αCYBB. For IB with αActin (upper), whole cell lysates (WCLs) were used. Representative gel images derived from five independent healthy controls and patients were shown. […] Five of ten data from normal human and UC patients were shown. […] (B) The colons of normal mice and mice with acute and chronic colitis were analyzed for IB with αNAMPT and αCYBB. WCLs were used for IB together with αActin. Biological replicates (n=10) for each condition were performed. (C) BMDMs were activated with LPS (100 ng/mL) for the indicated times (left), primed with LPS (100 ng/ml) for 4 hours, and then stimulated with ATP (1 mM) for the indicated times (right). IB in the supernatant (SN) with αNAMPT and WCL with αNAMPT or αActin. […] BMDMs were treated for IP with αNAMPT or αHis, and then treated sequentially IB with αTLR4, αCYBB, or αCYBA (D), and IB with αASC or αNLRP3(E). WCLs were used for IB with αTLR4, αCYBB, αCYBA, αASC, αNLRP3 or αActin.
Test [4] deals with T1, endogenous TLR4 of mouse macrophages (BMDMs) and mouse colon (mouse, UniProt Q9QUK6 26-835).
T1 construct: whole, on cells; Detected by immunoblot after co-immunoprecipitation from lysates
T1 sequence (looked up): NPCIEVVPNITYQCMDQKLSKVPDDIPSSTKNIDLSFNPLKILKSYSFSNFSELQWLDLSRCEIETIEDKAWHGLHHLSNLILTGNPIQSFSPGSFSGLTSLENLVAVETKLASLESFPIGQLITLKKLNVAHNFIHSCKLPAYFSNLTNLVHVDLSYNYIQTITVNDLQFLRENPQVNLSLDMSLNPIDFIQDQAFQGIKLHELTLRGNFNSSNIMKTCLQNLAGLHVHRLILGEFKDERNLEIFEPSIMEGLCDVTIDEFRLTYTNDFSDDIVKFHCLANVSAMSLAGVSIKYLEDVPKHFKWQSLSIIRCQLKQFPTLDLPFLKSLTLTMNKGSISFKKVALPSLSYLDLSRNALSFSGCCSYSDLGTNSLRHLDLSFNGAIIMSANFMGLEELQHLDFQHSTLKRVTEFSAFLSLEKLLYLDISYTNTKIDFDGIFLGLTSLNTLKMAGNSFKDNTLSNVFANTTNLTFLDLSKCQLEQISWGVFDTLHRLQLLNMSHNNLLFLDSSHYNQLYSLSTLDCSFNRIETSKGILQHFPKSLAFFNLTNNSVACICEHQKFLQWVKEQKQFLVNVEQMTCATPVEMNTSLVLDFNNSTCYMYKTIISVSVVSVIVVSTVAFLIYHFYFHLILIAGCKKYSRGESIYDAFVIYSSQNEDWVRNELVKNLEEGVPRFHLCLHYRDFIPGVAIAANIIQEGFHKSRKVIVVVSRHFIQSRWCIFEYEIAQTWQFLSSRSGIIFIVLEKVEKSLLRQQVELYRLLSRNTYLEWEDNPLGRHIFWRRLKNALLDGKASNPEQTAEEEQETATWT
Kind of test: co-IP (anti-His or anti-NAMPT) from mouse colon tissue, anti-TLR4 blot.

Test [5] has as its target T2, endogenous NLRP3 of mouse macrophages (BMDMs) (mouse, UniProt Q8R4B8 1-1033, limits assumed). Kind of test: co-IP (anti-NAMPT) from LPS/ATP-treated BMDMs, anti-NLRP3 blot.
Test [6] has as its target T3, endogenous CYBB of mouse macrophages (BMDMs) and mouse colon (mouse, UniProt Q61093 2-570).
T3 construct: whole, on cells; Detected by immunoblot after co-immunoprecipitation from lysates; also called NOX2; gp91Phox
T3 sequence (looked up): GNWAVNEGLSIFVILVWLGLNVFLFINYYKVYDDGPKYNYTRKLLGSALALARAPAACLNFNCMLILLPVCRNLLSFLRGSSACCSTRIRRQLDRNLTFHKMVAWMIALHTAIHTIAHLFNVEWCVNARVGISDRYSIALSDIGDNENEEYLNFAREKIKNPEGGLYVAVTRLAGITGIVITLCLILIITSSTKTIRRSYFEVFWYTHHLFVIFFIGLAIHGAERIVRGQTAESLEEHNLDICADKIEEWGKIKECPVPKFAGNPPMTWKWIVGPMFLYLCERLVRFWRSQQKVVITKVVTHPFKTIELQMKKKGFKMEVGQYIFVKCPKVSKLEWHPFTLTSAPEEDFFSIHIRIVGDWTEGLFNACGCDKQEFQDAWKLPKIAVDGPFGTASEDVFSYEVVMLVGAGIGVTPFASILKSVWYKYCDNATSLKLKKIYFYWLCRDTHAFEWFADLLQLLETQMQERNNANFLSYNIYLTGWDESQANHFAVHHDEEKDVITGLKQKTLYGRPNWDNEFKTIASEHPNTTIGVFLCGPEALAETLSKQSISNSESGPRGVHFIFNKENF
Briefly: co-IP (anti-His or anti-NAMPT) from mouse colon tissue, anti-CYBB blot.

Test [7] has as its target T2, endogenous NLRP3 of mouse macrophages …. Briefly: co-IP (anti-His) from BMDMs incubated with rNAMPT, anti-NLRP3 blot.

T2 sequence (Q8R4B8 whole entry): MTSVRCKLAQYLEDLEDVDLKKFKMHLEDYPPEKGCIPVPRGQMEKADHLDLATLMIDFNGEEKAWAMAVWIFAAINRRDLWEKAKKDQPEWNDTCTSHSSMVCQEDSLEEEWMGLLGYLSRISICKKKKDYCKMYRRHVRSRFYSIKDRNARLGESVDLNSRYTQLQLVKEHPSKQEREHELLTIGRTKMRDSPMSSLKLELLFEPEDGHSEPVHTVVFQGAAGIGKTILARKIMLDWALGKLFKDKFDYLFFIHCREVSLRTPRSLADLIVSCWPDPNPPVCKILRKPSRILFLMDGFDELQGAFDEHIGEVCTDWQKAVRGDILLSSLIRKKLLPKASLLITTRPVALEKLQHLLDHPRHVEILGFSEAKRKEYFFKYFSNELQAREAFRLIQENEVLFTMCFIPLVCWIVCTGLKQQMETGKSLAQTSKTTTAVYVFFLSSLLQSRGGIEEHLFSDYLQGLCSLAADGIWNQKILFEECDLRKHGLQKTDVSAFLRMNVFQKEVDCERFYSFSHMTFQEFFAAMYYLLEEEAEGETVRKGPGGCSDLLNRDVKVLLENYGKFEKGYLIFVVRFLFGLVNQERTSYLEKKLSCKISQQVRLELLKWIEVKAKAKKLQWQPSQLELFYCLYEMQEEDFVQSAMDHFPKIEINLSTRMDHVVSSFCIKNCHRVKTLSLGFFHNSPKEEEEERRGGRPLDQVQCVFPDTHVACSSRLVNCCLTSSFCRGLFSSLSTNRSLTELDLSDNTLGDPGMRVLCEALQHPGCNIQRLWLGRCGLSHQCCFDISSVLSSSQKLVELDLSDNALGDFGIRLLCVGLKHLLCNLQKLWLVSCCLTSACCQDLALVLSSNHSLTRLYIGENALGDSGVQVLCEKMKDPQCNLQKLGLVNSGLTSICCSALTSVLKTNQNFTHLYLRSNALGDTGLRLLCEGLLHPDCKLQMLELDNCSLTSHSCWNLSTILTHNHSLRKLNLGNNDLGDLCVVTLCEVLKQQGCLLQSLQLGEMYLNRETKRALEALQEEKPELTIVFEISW

B1: endogenous ASC of mouse macrophages (BMDMs) (other, UniProt Q9EPB4 1-193, looked up)
chain: MGRARDAILDALENLSGDELKKFKMKLLTVQLREGYGRIPRGALLQMDAIDLTDKLVSYYLESYGLELTMTVLRDMGLQELAEQLQTTKEESGAVAAAASVPAQSTARTGHFVDQHRQALIARVTEVDGVLDALHGSVLTEGQYQAVRAETTSQDKMRKLFSFVPSWNLTCKDSLLQALKEIHPYLVMDLEQS
Regarding B1, the results for the binding result in test [1] and in test [2] were “no binding (tested: 1 ug/mL rNAMPT)” and “no binding”, respectively.

B2: fluorescently labeled CYBB (enzyme)
chain: MGNWAVNEGLSIFVILVWLGLNVFLFVWYYRVYDIPPKFFYTRKLLGSALALARAPAACLNFNCMLILLPVCRNLLSFLRGSSACCSTRVRRQLDRNLTFHKMVAWMIALHSAIHTIAHLFNVEWCVNARVNNSDPYSVALSELGDRQNESYLNFARKRIKNPEGGLYLAVTLLAGITGVVITLCLILIITSSTKTIRRSYFEVFWYTHHLFVIFFIGLAIHGAERIVRGQTAESLAVHNITVCEQKISEWGKIKECPIPQFAGNPPMTWKWIVGPMFLYLCERLVRFWRSQQKVVITKVVTHPFKTIELQMKKKGFKMEVGQYIFVKCPKVSKLEWHPFTLTSAPEEDFFSIHIRIVGDWTEGLFNACGCDKQEFQDAWKLPKIAVDGPFGTASEDVFSYEVVMLVGAGIGVTPFASILKSVWYKYCNNATNLKLKKIYFYWLCRDTHAFEWFADLLQLLESQMQERNNAGFLSYNIYLTGWDESQANHFAVHHDEEKDVITGLKQKTLYGRPNWDNEFKTIASQHPNTRIGVFLCGPEALAETLSKQSISNSESGPRGVHFIFNKENF
Regarding B2, the Kd in test [3] came out at 0.896 µM. In the case of B3, the binding result in test [4] is on record as “binds”; in test [5], “no binding”; in test [6], “binds”. For B4, the binding result in test [7] is listed as “no binding (tested: 1 ug/mL rNAMPT)”.
